Experimental data: US20220175781A1, “CD40L COMPOSITIONS AND METHODS FOR TUNABLE REGULATION” (Obsidian Therapeutics, Inc., priority 2019, published 2022)
Several values for one entry are separate records, joined by “and”; a condition that tells them apart may be missing. Equal entries are not always repeated.

How the values were obtained:
T cells = assay: % CD40L positive cells in vivo, transduced T cells in NSG mice dosed with TMP; parameters: species or system NSG female mice
Procedure: Based on the in vitro data, regulatability of CD40L constructs in vivo was tested. 10-week old NSG female mice were injected with T cells transduced with one of the following constructs empty vector, OT-001661, and OT-001662 (day 0). On day 1, mice were pre-bled prior to dose with ligand. On day 2, mice were dosed every 4 hours with TMP at 500 mg/kg body weight of the mouse or vehicle control. Two hours after every dose, blood was collected from the mice to measure CD40L levels. On day 3, i.e. 24 hours after the first dose, mice were terminally bled for analysis. The values in bold represent the average values for each bleed.

[1] = tested on: T cells co-cultured with monocyte derived dendritic cells (mDC); assay: CD40L levels in T cells in mDC co-culture (FACS); assay type: cell-based; settings: for % CD40L+ / CD40L MFI: mDC co-culture 2 days; for SR (based on %) / SR (based on MFI): stabilization ratio
Text: In order to engage dendritic cells in an immune response, dendritic cells must be converted to a functional state by an antigen-specific CD4+ helper T cell. Activation of the dendritic cells may be followed by the activation of CD8+ T cells by the dendritic cells, a process referred to as dendritic cell licensing. Engagement of the CD40L expressed on the CD4+ cells with the CD40 on the dendritic cells can result in (i) dendritic cell stimulation-measured by expression of co-stimulatory and MHC molecules (ii) proinflammatory cytokine release (e.g. IL12, TNFα and INFγ) (iii) epitope spreading. To measure the effect of CD40L expression that is tuned by the biocircuits of the present disclosure, CD4+ T cells or Jurkat cells expressing any of the CD40L constructs described herein were co-cultured with dendritic cells.
Dendritic cell function in response to co-culture with T cells expressing CD40L was evaluated in the presence of ligand or corresponding vehicle control. Monocyte derived dendritic cells (mDC) (CD14+) were isolated from fresh blood and cultured for 5 days with IL-4 (7.5 ng/mL) and GM-CSF (20 ng/mL). The mDCs were frozen down after the 5 day culture. T cells were transduced with OT-001662 and expanded for 9 days before being frozen down. mDCs and T cells were thawed and co-cultured 1:10 DC: T cell ratio (i.e. 5×10^4 DCs: 5×10^5 T cells). mDC and T cells were co-cultured for 2 days before cells were collected for flow cytometry and supernatants were collected for cytokine analysis. For evaluation of regulated constructs, ligand (various doses of TMP) was added at the time initiating the co-culture and was kept in the co-culture for 2 days. Cytokines were analyzed by MSD after a single freeze thaw cycle. All cells were cultured in complete RPMI with 10% FBS during the course of the experiment. SR indicates stabilization ratio.

CD4+ T cells = assay: Ligand dose response, % CD40L positive cells, CD4+ T cells; assay type: cell-based
Procedure: Ligand dose response curve experiments were performed with increasing doses of ligand using OT-001662 and OT-001666 constructs in both CD4+ as well as CD8+ T cells.
The experiments were conducted using three different volumes of virus for transduction i.e. 0.5, 2 and 10 μL.

[2] = tested on: T cells (CD4 and CD8 positive); assay: CD40L MFI in vitro in CD4 and CD8 positive T cells, 10 μM TMP; assay type: cell-based
Procedure: T cells were transduced with OT-001662 and then treated with 10 μM TMP on day 4. CD40L expression was analyzed by FACS both in the CD4 and CD8 positive T cell populations.

B1: OT-001662: CD40L construct with ecDHFR (M1del, R12Y, Y100I) DRD, ligand TMP (protein)
chain: MSGISLIAALAVDYVIGMENAMPWNLPADLAWFKRNTLNKPVIMGRHTWESIGRPLPGRKNIILSSQPGTDDRVTWVKSVDEAIAACGDVPEIMVIGGGRVIEQFLPKAQKLYLTHIDAEVEGDTHFPDYEPDDWESVFSEFHDADAQNSHSYCFEILERRHMIETYNQTSPRSAATGLPISMKIFMYLLTVFLITQMIGSALFAVYLHRRLDKIEDERNLHEDFVFMKTIQRCNTGERSLSLLNCEEIKSQFEGFVKDIMLNKEETKKENSFEMQKGDQNPQIAAHVISEASSKTTSVLQWAEKGYYTMSNNLVTLENGKQLTVKRQGLYYIYAQVTFCSNREASSQAPFIASLCLKSPGRFERILLRAANTHSSAKPCGQQSIHLGGVFELQPGASVFVNVTDPSQVSHGTGFTSFGLLKL
% CD40L positive cells in vivo (T cells; 0 hours, average, TMP 500 mg/kg every 4 hours): 1.0%
% CD40L positive cells in vivo (T cells; 0 hours, average, Vehicle): 0.9%
% CD40L positive cells in vivo (T cells; 0 hours, individual values, TMP 500 mg/kg every 4 hours): 0.9% (2×) and 0.4% and 1.8%
% CD40L positive cells in vivo (T cells; 0 hours, individual values, Vehicle): 0.8% and 0.9% and 0.1% and 1.8%
% CD40L positive cells in vivo (T cells; 2 hours, average, TMP 500 mg/kg every 4 hours): 8.6%
% CD40L positive cells in vivo (T cells; 2 hours, average, Vehicle): 0.9%
% CD40L positive cells in vivo (T cells; 2 hours, individual values, TMP 500 mg/kg every 4 hours): 11.8% and 13.0% and 9.6% and 0.0%
% CD40L positive cells in vivo (T cells; 2 hours, individual values, Vehicle): 0.6% and 1.0% and 0.0% and 1.9%
% CD40L positive cells in vivo (T cells; 6 hours, average, TMP 500 mg/kg every 4 hours): 19.9%
% CD40L positive cells in vivo (T cells; 6 hours, average, Vehicle): 0.3%
% CD40L positive cells in vivo (T cells; 6 hours, individual values, TMP 500 mg/kg every 4 hours): 22.1% and 25.7% and 13.8% and 18.0%
% CD40L positive cells in vivo (T cells; 6 hours, individual values, Vehicle): 0.3% and 0.4% and 0.5% and 0.2%
% CD40L positive cells in vivo (T cells; 10 hours, average, TMP 500 mg/kg every 4 hours): 20.1%
% CD40L positive cells in vivo (T cells; 10 hours, average, Vehicle): 0.1%
% CD40L positive cells in vivo (T cells; 10 hours, individual values, TMP 500 mg/kg every 4 hours): 26.0% and 21.4% and 0.0% and 33.1%
% CD40L positive cells in vivo (T cells; 10 hours, individual values, Vehicle): 0.0% (3×) and 0.3%
% CD40L positive cells in vivo (T cells; 24 hours, average, TMP 500 mg/kg every 4 hours): 12.0%
% CD40L positive cells in vivo (T cells; 24 hours, average, Vehicle): 0.6%
% CD40L positive cells in vivo (T cells; 24 hours, individual values, TMP 500 mg/kg every 4 hours): 1.2% and 0.8% and 18.9% and 27.2%
% CD40L positive cells in vivo (T cells; 24 hours, individual values, Vehicle): 0.0% and 0.3% and 1.4% and 0.7%
% CD40L+ ([1]; CD4+, DMSO): 3.71%
CD40L MFI ([1]; CD4+, DMSO): 63.8
% CD40L+ ([1]; CD4+, TMP (0.1 μM)): 4.32%
CD40L MFI ([1]; CD4+, TMP (0.1 μM)): 69.8
% CD40L+ ([1]; CD4+, TMP (0.5 μM)): 3.34%
CD40L MFI ([1]; CD4+, TMP (0.5 μM)): 61.1
% CD40L+ ([1]; CD4+, TMP (2 μM)): 78%
CD40L MFI ([1]; CD4+, TMP (2 μM)): 691
% CD40L+ ([1]; CD4+, TMP (10 μM)): 84.1%
CD40L MFI ([1]; CD4+, TMP (10 μM)): 1379
SR (based on %) ([1]; CD4+, TMP (0.1 μM)): 1.16
SR (based on MFI) ([1]; CD4+, TMP (0.1 μM)): 1.09
SR (based on %) ([1]; CD4+, TMP (0.5 μM)): 0.90
SR (based on MFI) ([1]; CD4+, TMP (0.5 μM)): 0.96
SR (based on %) ([1]; CD4+, TMP (2 μM)): 21.02
SR (based on MFI) ([1]; CD4+, TMP (2 μM)): 10.83
SR (based on %) ([1]; CD4+, TMP (10 μM)): 22.67
SR (based on MFI) ([1]; CD4+, TMP (10 μM)): 21.61
% CD40L+ ([1]; CD8+, DMSO): 0.47%
CD40L MFI ([1]; CD8+, DMSO): 57.8
% CD40L+ ([1]; CD8+, TMP (0.1 μM)): 0.69%
CD40L MFI ([1]; CD8+, TMP (0.1 μM)): 61.5
% CD40L+ ([1]; CD8+, TMP (0.5 μM)): 0.57%
CD40L MFI ([1]; CD8+, TMP (0.5 μM)): 54.5
% CD40L+ ([1]; CD8+, TMP (2 μM)): 57.8%
CD40L MFI ([1]; CD8+, TMP (2 μM)): 419
% CD40L+ ([1]; CD8+, TMP (10 μM)): 74.9%
CD40L MFI ([1]; CD8+, TMP (10 μM)): 951
SR (based on %) ([1]; CD8+, TMP (0.1 μM)): 1.47
SR (based on MFI) ([1]; CD8+, TMP (0.1 μM)): 1.06
SR (based on %) ([1]; CD8+, TMP (0.5 μM)): 1.21
SR (based on MFI) ([1]; CD8+, TMP (0.5 μM)): 0.94
SR (based on %) ([1]; CD8+, TMP (2 μM)): 122.98
SR (based on MFI) ([1]; CD8+, TMP (2 μM)): 7.25
SR (based on %) ([1]; CD8+, TMP (10 μM)): 159.36
SR (based on MFI) ([1]; CD8+, TMP (10 μM)): 16.45
Ligand dependent regulation of CD40L ([1]; mDC-T cell co-culture 2 days, various doses of TMP, CD4 and CD8+ cells): Ligand dependent regulation of CD40L was evident
% CD40L positive cells (CD4+ T cells; 0.5 μL virus, TMP 0.05 nM): 31.6%
% CD40L positive cells (CD4+ T cells; 0.5 μL virus, TMP 0.5 nM): 32%
% CD40L positive cells (CD4+ T cells; 0.5 μL virus, TMP 5 nM): 33.9%
% CD40L positive cells (CD4+ T cells; 0.5 μL virus, TMP 50 nM): 35.7%
% CD40L positive cells (CD4+ T cells; 0.5 μL virus, TMP 500 nM): 48.2%
% CD40L positive cells (CD4+ T cells; 0.5 μL virus, TMP 5000 nM): 67%
% CD40L positive cells (CD4+ T cells; 0.5 μL virus, TMP 50000 nM): 68.9%
% CD40L positive cells (CD4+ T cells; 2 μL virus, TMP 0.05 nM): 25.1%
% CD40L positive cells (CD4+ T cells; 2 μL virus, TMP 0.5 nM): 24.4%
% CD40L positive cells (CD4+ T cells; 2 μL virus, TMP 5 nM): 27.6%
% CD40L positive cells (CD4+ T cells; 2 μL virus, TMP 50 nM): 37.4%
% CD40L positive cells (CD4+ T cells; 2 μL virus, TMP 500 nM): 68.4%
% CD40L positive cells (CD4+ T cells; 2 μL virus, TMP 5000 nM): 76.8%
% CD40L positive cells (CD4+ T cells; 2 μL virus, TMP 50000 nM): 76.8%
% CD40L positive cells (CD4+ T cells; 10 μL virus, TMP 0.05 nM): 23.8%
% CD40L positive cells (CD4+ T cells; 10 μL virus, TMP 0.5 nM): 24.2%
% CD40L positive cells (CD4+ T cells; 10 μL virus, TMP 5 nM): 24.6%
% CD40L positive cells (CD4+ T cells; 10 μL virus, TMP 50 nM): 30.7%
% CD40L positive cells (CD4+ T cells; 10 μL virus, TMP 500 nM): 58.5%
% CD40L positive cells (CD4+ T cells; 10 μL virus, TMP 5000 nM): 79.1%
% CD40L positive cells (CD4+ T cells; 10 μL virus, TMP 50000 nM): 78.8%
CD40L MFI in vitro ([2]; CD4+, TMP (10 μM)): 10159
CD40L MFI in vitro ([2]; CD4+, Vehicle): 348
CD40L MFI in vitro ([2]; CD8+, TMP (10 μM)): 4893
CD40L MFI in vitro ([2]; CD8+, Vehicle): 182
